From US20140363844

How the values were obtained:
[1] = target: T1, Presegetalin A1[14,32]
T1 chain: GVPVWAFQAKDVENASAPV

[2] = target: T2, Presegetalin A1[14,32] P16p W18A
T2 chain: GVPVAAFQAKDVENASAPV

[3] = target: T3, Presegetalin A1[14,32] P16p W18a
T3 chain: GVPVAAFQAKDVENASAPV

[4] = target: T4, Presegetalin A1[14,32]V15A
T4 chain: GAPVWAFQAKDVENASAPV

[5] = target: T5, Presegetalin A1[14,32]A19V
T5 chain: GVPVWVFQAKDVENASAPV

[6] = target: T6, Presegetalin A1[14,32]V17A
T6 chain: GVPAWAFQAKDVENASAPV

[7] = target: T7, Presegetalin A1[14,32]W18A
T7 chain: GVPVAAFQAKDVENASAPV

[8] = target: T8, Presegetalin A1[14,32]G14A
T8 chain: AVPVWAFQAKDVENASAPV

[9] = target: T9, Presegetalin A1[14,32]P16A
T9 chain: GVAVWAFQAKDVENASAPV

B1: Silene vulgaris PCY1-c150 (recombinant) (protein)
chain: MASSAFSKPLNYPPVRRDETVVNDYFGVKVADPYRWLEDQEGEETIEFVDNQVKLADSVLEECELRDKIKQKITDLVNFPRCGVPFKRADKYFHFYNSGLQAQNVLHMQDDLDGKPEVLYDPNLREGGRSGLHQYAVSEDAKYLAFGINSGFSEWLTIKVMRIEDRSVLPDSLSWVKFSGIHWTHDSKGFFFSPYPPATEGLEVGMKTNSSFNQELRYHFLGTDESEDVLCWRDPENPTHHLKSDLTADGKYLLLYISAGCDATNKVYYMDLTTLPNGLEGLRGGKDLLPFKRLIDEFDATYTAIANDGSVFTFLTNKDAPRNKIVRVDLNNPDIWTEVIPESKKDVLESAHAVNGNQLLVRYLSDVKHILEVRDLESGSLLHRLPVDLGVIDGITARPQDSVVFFKFTSFLTPTIIYQCDLKEDSPQLKIFRESVVPEFDRSEFEVKQVFVSAKDGTKIPMFIVARKGISLDGSHPCELHGYGGFSISIKPFFSASRIVILKHLDAVFCVANIRGGGEYGEEWHQAGWREKKQIVFDDFISSAEYLVSSGYTQPQKLSIEGGSNGGLLVAACINQRPDLFGCAQANCGVMDMLRFHKFTLGYLWTSDYGCSEKEEDFNWLIKYSPIHNVRRPWEHSKNPQLQYPAVMILTADHDDRVVPLHSFKLLATLQHVLCTSLEDSPQKNPIIARIERKASHCGRATMKQIDEAADRYAFMAKALRATWTD
- production of segetalin A (LC/MS) [1]: has the same enzymatic activity as that of S. vaccaria PCY1, (FIG. 7d) albeit weaker than that of S. vaccaria PCY1 for production of segetalin A

B2: Dianthus superbus PCY1-c1141 (recombinant) (protein)
chain: MAVSCGFTKTLHYPPVRRDETVVDDYFGLKIADPYRWLEDLNSEETKKFVDDQVKFTESVLEECELIGKVKQKIIDYVSFPRWSVPLRRANKYFHFYNSGLQSQNVYRMQDGLDGKPEVVYDPNLREGGRTGLTLYSVSEDANYFAFGIAEGFTEWLTIRVMRIEDRSMLPDCITGVKHSGIHWTHDNKGFFYCPYPPLEEGQDLMIHPSMSQEVRYHFIGTDQSEDILCWKDTVNPTHHLKSYFTDDGKYFVLYILEGCNNMNKVYCLDLTELPNGPESLRGREGSAPFIKLVDSFDALYTAIANDGSVFTFLTDKDATRRKLVRVDLNNPSVWTDVLPESKDLLESAHAVNGNQLLIRYLSDVKHILELRDLESGSLLHRIPIDIGAVDGTINARRGDSVVFFKFTSILTPSIIYQCDLKNDPPQLKIFRESVVPGFDRSEFEVKQLFAPSKDGTMIPTFVAARKGISLDGSHPCEMHGYGAYGQCMMPTFSASRLVFLKHLGGVFCLANIRGGGEYGVEWHKAGARENKQNSYDDFIASAEFLVSSGYTAPKKICIEGGSNGGLLIAVCITQRPDLFGCAEPNCGPMDMIRFHHFTQGYVVMSEYGSPDKEEEFNWLIKYSPLHNVRRPWEQPGHEQTQYPATMIITADHDDRVVPFHSYKMIATMQHVLCTSLENSPQKFPIICRIQRNASHYGRATMVQIAEVADRYGFMAKALNATWTD
- production of segetalin A (LC/MS) [1]: show strong enzymatic activity ... similar to that of S. vaccaria PCY1
- cyclic peptide product (LC/MS, MS/MS) [2]: S. vaccaria PCY1 and D. superbus PCY1-c1141 made cyclic peptides from both No. 31 and No. 32
- cyclic peptide product (LC/MS, MS/MS) [3]: S. vaccaria PCY1 and D. superbus PCY1-c1141 made cyclic peptides from both No. 31 and No. 32
- cyclization (LC/MS) [3]: also demonstrated the ability to cyclize alternating D- and L-amino acid polypeptide substrates (FIG. 12a) in a similar manner to S. vaccaria PCY1
- relative activity (LC/MS) [3]: D. superbus PCY1-c1141 was relatively more active on No. 32 than was S. vaccaria PCY1

B3: Dianthus superbus PCY1-c250 (recombinant) (protein)
chain: MASCGFTKPLHYPTARRDETVVDDYFGLKVADPYRWLEDRDSEETKKFVEDQVKFTDSVLEECELIGKVKQKIIDYVSFPRWSVPLRRANKYFHFYNSGLQSQNVYRMQDGLDGKPEVICDPNLREDGRTGLSVYSVSEDAKYFAFGIAEGFTEWLTIRVMRTEDRSMLPDCLTEVKFTTVHWTHDNKGFFYCAYPPLEEGQDHMVHASISQEARYHYLGTDQSEDILCWKDPENPTHHFRSYFTDDGKYFVLYILEGCDKKNKVYCLDLTKLPNGPESLRGREGSAPFIKLVDSFDASYTVIANDDSVFTLLTDKDAKRCKLVRVDLNNPSVWTDVIPESKDLLESAHAVNGNQLLLRYLRDVKHVLELRDLESGSLLHSIPIDIGAVDGINARRGDSIVFFRFTSILTPGIIYQCDLKNDPTQLNIFRESLVPGFDRSEFEVKQVFVPGKDGTKIPAFIAARKGISLDGSHPCEMHGYGGYGHNMMPTFSASRLVFLKHLGGVFCLANIRGGGEYGVDWHKAGARENKQTSFDDFISSAEFLVSSGYSAPKKICIEGGSNGGLLIAVCITQRPDLFGCAEPNCGPMDMLRFHKFTLGYLWTDEYGNPDNEEEFNWLIKYSPLHNVRRPWEQPGHEQTQYPATMIITADHDDRVVPMHSYKMIATMQHVLCTSLENSPQKYPIICRIQRKASHYGRSTMVQIAEVADRYGFMAKALNATWTD
- production of segetalin A (LC/MS) [1]: show strong enzymatic activity ... similar to that of S. vaccaria PCY1
- activity on alanine scan mutant (LC/MS) [4]: D. superbus PCY1-c250 activity was comparable to that of S. vaccaria PCY1
- activity on alanine scan mutant (LC/MS) [5]: D. superbus PCY1-c250 activity was comparable to that of S. vaccaria PCY1
- activity on alanine scan mutant (LC/MS) [6]: D. superbus PCY1-c250 activity was comparable to that of S. vaccaria PCY1
- cyclic peptide product (LC/MS) [7]: D. superbus PCY1-c250 appeared to produce relatively more cyclic peptide than did S. vaccaria PCY1 from No. 11
- cyclic peptide product (LC/MS) [8]: there was no detectable cyclic peptide made from No. 7 by D. superbus PCY1-c250
- activity on alanine scan mutant (LC/MS) [9]: D. superbus PCY1-c250 activity was comparable to that of S. vaccaria PCY1
